Target: T1, Sirt3 F180L (Homo sapiens, UniProt Q9NTG7, F180L)
T1 construct: His tag (from pTrcHis 2C vector; nickel column purification); made in house; host or cells: E. coli Rosetta
T1 sequence (Q9NTG7 102-399 F180L): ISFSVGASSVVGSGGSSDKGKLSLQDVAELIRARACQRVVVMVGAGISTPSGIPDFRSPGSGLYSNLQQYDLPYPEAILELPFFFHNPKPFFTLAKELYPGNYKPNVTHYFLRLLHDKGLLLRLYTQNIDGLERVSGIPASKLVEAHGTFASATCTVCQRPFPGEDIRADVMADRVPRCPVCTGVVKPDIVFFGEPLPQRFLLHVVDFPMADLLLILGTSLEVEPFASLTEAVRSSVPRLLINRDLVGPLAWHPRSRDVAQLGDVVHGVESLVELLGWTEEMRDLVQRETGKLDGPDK
Assay: Steady state kinetics of deacetylation by Sirt3 F180L mutant
Format: biochemical
Conditions: F180L vs wild-type Sirt3 (H3K4Ac, Figure 4—figure supplement 6)
Procedure: Plasmids of Sirt1 (193–747), Sirt2 (36–356), Sirt5 (34–302), and Sirt6 (1–314) for Escherichia coli expression were generated as previously described ([Finnin et al., 2001]; [Du et al., 2011]; [Hubbard et al., 2013]; [Jiang et al., 2013]). […] Sirt3 mutant F180L was generated by site directed mutagenesis. All of the proteins were expressed in E. coli Rosetta cells. To induce expression of target proteins, isopropyl β-D-1-thiogalactopyranoside was added to a final concentration of 0.2 mM when OD600 reached 0.6, and the culture was grown at 15 °C (Sirt3 at 25 °C) for 16–18 hr. Cells were harvested and resuspended in lysis buffer A (50 mM Tris–HCl, pH 7.5, 500 mM NaCl, 1 mM PMSF, and Roche EDTA free protease inhibitors, for Sirt1, Sirt2, and Sirt6) or buffer B (50 mM Tris–HCl, pH 7.5, 150 mM NaCl, 1 mM PMSF, and Roche EDTA free protease inhibitors, for Sirt3 and Sirt5). […]
Enzyme was incubated with different concentrations of corresponding peptides bearing two tryptophans at the C terminus (20, 40, 60, 80, 100, 200, and 500 μM) and 1.0 mM NAD in 20 mM Tris–HCl buffer (pH 7.5) containing 1 mM DTT in 25 μL reaction at 37°C for a certain period of time within the initial linear range. […] Samples were then analyzed by HPLC with a Vydac 218TP C18 column (4.6 mm×250 mm, 5 μm; Grace Davison). […]

decrease in deacetylation activity caused by F180L mutation: about a two-fold decrease
B1: Sirt3 F180L: Sirt3 mutant with Phe180 mutated to leucine (protein, UniProt Q9NTG7 1-399, looked up, variant F180L)
chain: MAFWGWRAAAALRLWGRVVERVEAGGGVGPFQACGCRLVLGGRDDVSAGLRGSHGARGEPLDPARPLQRPPRPEVPRAFRRQPRAAAPSFFFSSIKGGRRSISFSVGASSVVGSGGSSDKGKLSLQDVAELIRARACQRVVVMVGAGISTPSGIPDFRSPGSGLYSNLQQYDLPYPEAILELPFFFHNPKPFFTLAKELYPGNYKPNVTHYFLRLLHDKGLLLRLYTQNIDGLERVSGIPASKLVEAHGTFASATCTVCQRPFPGEDIRADVMADRVPRCPVCTGVVKPDIVFFGEPLPQRFLLHVVDFPMADLLLILGTSLEVEPFASLTEAVRSSVPRLLINRDLVGPLAWHPRSRDVAQLGDVVHGVESLVELLGWTEEMRDLVQRETGKLDGPDK
